Source: patent US20250277196A1, “EPSPS MUTANTS AND METHOD OF ITS USES” (CROPEDIT BIOTECHNOLOGY INC., priority 2021, published 2025)
Where a chain is given by its changes, count along the chain named. Names and notes keep the numbering of the source.

B1: OsTIPS: mutated rice EPSPS with mutation T173I and P177S (SEQ ID NO:35); same mutation type as glyphosate-resistant corn GA21 (protein)
chain: MAAKAEEIVLQPIREISGAVQLPGSKSLSNRILLLSALSEGTTVVDNLLNSEDVHYMLEALKALGLSVEADKVAKRAVVVGCGGKFPVEKDAKEEVQLFLGNAGIAMRSLTAAVTAAGGNATYVLDGVPRMRERPIGDLVVGLKQLGADVDCFLGTECPPVRVKGIGGLPGGKVKLSGSISSQYLSALLMAAPLALGDVEIEIIDKLISIPYVEMTLRLMERFGVKAEHSDSWDRFYIKGGQKYKSPGNAYVEGDASSASYFLAGAAITGGTVTVQGCGTTSLQGDVKFAEVLEMMGAKVTWTDTSVTVTGPPREPYGKKHLKAVDVNMNKMPDVAMTLAVVALFADGPTAIRDVASWRVKETERMVAIRTELTKLGASVEEGPDYCIITPPEKLNITAIDTYDDHRMAMAFSLAACADVPVTIRDPGCTRKTFPNYFDVLSTFVRN
modifications: This sequence is synthesized in lab.
notes: same mutation type as glyphosate-resistant corn GA21
B2: 1-552: rice EPSPS with G172A, P177S, K399N, V403A and T466S mutations (protein)
chain: B1 chain with G104A, I105T, K331N, V335A
modifications: This sequence is synthesized in lab.
notes: rice EPSPS with G172A, P177S, K399N, V403A and T466S mutations
B3: SEQ ID NO:23: rice EPSPS with A73S, G172A, P177S, L214F and V403A mutations; sample code not printed (protein)
chain: B1 chain with A5S, G104A, I105T, L146F, V335A
modifications: This sequence is synthesized in lab.
B4: 2-5: rice EPSPS with E163K, G172A, P177S, A216V, L253M, H389R and V403A mutations (protein)
chain: B1 chain with E95K, G104A, I105T, A148V, L185M, H321R, V335A
modifications: This sequence is synthesized in lab.
notes: rice EPSPS with E163K, G172A, P177S, A216V, L253M, H389R and V403A mutations
B5: 1-547: rice EPSPS with E137D, G172A, P177S, L253M and V403A mutations (protein)
chain: B1 chain with E69D, G104A, I105T, L185M, V335A
modifications: This sequence is synthesized in lab.
notes: rice EPSPS with E137D, G172A, P177S, L253M and V403A mutations
B6: 1-98: rice EPSPS with A73T, G172A, P177S and V403A mutations (protein)
chain: B1 chain with A5T, G104A, I105T, V335A
modifications: This sequence is synthesized in lab.
notes: rice EPSPS with A73T, G172A, P177S and V403A mutations
B7: 1-139: rice EPSPS with A73T, E86G, G172A, P177S and V403A mutations (protein)
chain: B1 chain with A5T, E89G, G104A, I105T, V335A
modifications: This sequence is synthesized in lab.
notes: rice EPSPS with A73T, E86G, G172A, P177S and V403A mutations
B8: 1-68: rice EPSPS with A70V, G172A, P177S, V403A and R514S mutations (protein)
chain: B1 chain with A2V, G104A, I105T, V335A, R446S
modifications: This sequence is synthesized in lab.
notes: rice EPSPS with A70V, G172A, P177S, V403A and R514S mutations
B9: 1-246: rice EPSPS with A145G, G172A, P177S, V403A, T442S and D472E mutations (protein)
chain: B1 chain with A77G, G104A, I105T, V335A, T374S, D404E
modifications: This sequence is synthesized in lab.
notes: rice EPSPS with A145G, G172A, P177S, V403A, T442S and D472E mutations
B10: 1-599: rice EPSPS with A73G, L134F, G172A, P177S, G265V, S374R and V403A mutations (protein)
chain: B1 chain with A5G, L66F, G104A, I105T, G197V, S306R, V335A
modifications: This sequence is synthesized in lab.
notes: rice EPSPS with A73G, L134F, G172A, P177S, G265V, S374R and V403A mutations
B11: 2-46: rice EPSPS with G172A, P177S, N246D and V403A mutations (protein)
chain: B1 chain with G104A, I105T, N249D, V335A
modifications: This sequence is synthesized in lab.
notes: rice EPSPS with G172A, P177S, N246D and V403A mutations
B12: 1-386: rice EPSPS with G172A, P177S, V403A and F502V mutations (protein)
chain: B1 chain with G104A, I105T, V335A, F434V
modifications: This sequence is synthesized in lab.
notes: rice EPSPS with G172A, P177S, V403A and F502V mutations
B13: 3-33: rice EPSPS with G172A, P177S, V208A, L264H, V403A and R514K mutations (protein)
chain: B1 chain with G104A, I105T, V140A, L196H, V335A, R446K
modifications: This sequence is synthesized in lab.
notes: rice EPSPS with G172A, P177S, V208A, L264H, V403A and R514K mutations
B14: 2-47: rice EPSPS with G172A, M175A, P177S, M258L, K356E, V403A and F512I mutations (protein)
chain: B1 chain with G104A, I105T, M107A, M190L, K288E, V335A, F444I
modifications: This sequence is synthesized in lab.
notes: rice EPSPS with G172A, M175A, P177S, M258L, K356E, V403A and F512I mutations
B15: 3-36: rice EPSPS with V113M, G172A, P177S and V403A mutations (protein)
chain: B1 chain with V45M, G104A, I105T, V335A
modifications: This sequence is synthesized in lab.
notes: rice EPSPS with V113M, G172A, P177S and V403A mutations
B16: 1-411: rice EPSPS with G172A, P177S, Y252F and V403A mutations (protein)
chain: B1 chain with G104A, I105T, Y184F, V335A
modifications: This sequence is synthesized in lab.
notes: rice EPSPS with G172A, P177S, Y252F and V403A mutations
B17: SEQ ID NO:19: rice EPSPS with A73K, D114H, V136M, K161E, G172A, P177S, A260T and V403A mutations; sample code not printed (protein)
chain: B1 chain with A5K, D46H, V68M, K93E, G104A, I105T, A192T, V335A
modifications: This sequence is synthesized in lab.

system: Escherichia coli DH5α with EPSPS gene knocked out; experiment: Resistance test of rice EPSPS mutants from error-prone PCR on OsGPV: colony growth on medium with 0, 100 mM and 125 mM glyphosate (FIG. 7); type: cell-based; conditions: 100 mM glyphosate
Description: In order to further improve the glyphosate resistance and develop highly resistant rice EPSPS mutants that can meet commercial production requirements, we used OsGPV as a template to perform random mutations, with high-concentration glyphosate screening, and to identify EPSPS mutant that can improve the glyphosate resistance.
We used OsGPV(SEQ ID NO:6) as a template to perform error-prone PCR. (With GeneMorph II Random Mutagenesis Kit, #200550, Agilent Technologies).
a) The recovered product was digested with EcoRI and SbfI, and then ligated to the pKED2 vector after the same double digestion with T4 DNA ligase to obtain the ligation product to obtain the vector carrying the rice EPSPS gene mutant.
b) Transformed the above vector into Escherichia coli DH5α with EPSPS gene knocked out. The transformation steps were as follows: add the above ligation product to 50 μl E. coli DH5α competent cells with EPSPS gene knocked out, mix well and incubate on ice for 30 min, then after a heat shock at 42° C. for 90 s, immediately place it in an ice bath on ice for 2 min after taking it out. After the ice bath, add 500 μl of LB liquid medium and resuscitate at 37° C. at 180 r/min for 45 min. The transformed Escherichia coli was a mutant library expressing rice EPSPS mutant genes obtained on the template basis of OsGPV.
5) Centrifuged the transformed product obtained above at 3000 rpm for 5 min, discarded the supernatant, then resuspended it in 1 ml M9 liquid medium, added 200 μl M9 liquid medium to resuspend and inoculated it on an M9 plate containing 75 mM glyphosate. Incubated at 37 degrees for 24 hours.
Pick and saved the single colonies grown in the above screening plates, and conduct further resistance identification and sequencing
ii. Resistance test of rice mutants. In this example, the wild-type rice EPSPS gene OsWT, the most widely used commercial glyphosate-resistant gene CP4EPSPS, the rice mutantOsTIPS, which had the same mutation type with commercial glyphosate-resistant corn GA21, and the rice mutant OsGPV with the highly glyphosate-resistant rice EPSPS mutant gene obtained in this study were transformed as control, and the newly obtained rice EPSPS mutants were transformed as the experimental group, and the glyphosate resistance among the control and the mutants were compared. The monoclonal bacteria of the control group and the experimental group were respectively inoculated into a medium containing 0, 100 mM and 125 mM glyphosate, and the growth of colonies in each group was observed.

Row | Molecule | colony growth under 100 mM glyphosate
1 | B1 | did not grow

same assay, conditions: 125 mM glyphosate pressure, FIG. 7

Row | Molecule | colony growth status compared with OsGPV
2 | B2 | significantly higher than OsGPV
3 | B3 | significantly higher than OsGPV
4 | B4 | significantly higher than OsGPV
5 | B5 | significantly higher than OsGPV
6 | B6 | significantly higher than OsGPV
7 | B7 | significantly higher than OsGPV
8 | B8 | significantly higher than OsGPV
9 | B9 | significantly higher than OsGPV
10 | B10 | significantly higher than OsGPV
11 | B11 | significantly higher than OsGPV
12 | B12 | significantly higher than OsGPV
13 | B13 | significantly higher than OsGPV
14 | B14 | significantly higher than OsGPV
15 | B15 | significantly higher than OsGPV
16 | B16 | significantly higher than OsGPV
17 | B17 | significantly higher than OsGPV
